Experimental data as given in US20260234228A1 (GENOME, published 2026).

biological target: T1, human CNTN4 overexpressed on cells (human, UniProt Q8IWV2 19-1000); assay: FACS, scFv periplasm on human CNTN4-overexpressing 293F cells, PE anti-His detection
T1 construct: whole, on cells; the construct is not described; also called human CNTN4 cell; human CNTN4-overexpressing 293F cells
T1 sequence (looked up): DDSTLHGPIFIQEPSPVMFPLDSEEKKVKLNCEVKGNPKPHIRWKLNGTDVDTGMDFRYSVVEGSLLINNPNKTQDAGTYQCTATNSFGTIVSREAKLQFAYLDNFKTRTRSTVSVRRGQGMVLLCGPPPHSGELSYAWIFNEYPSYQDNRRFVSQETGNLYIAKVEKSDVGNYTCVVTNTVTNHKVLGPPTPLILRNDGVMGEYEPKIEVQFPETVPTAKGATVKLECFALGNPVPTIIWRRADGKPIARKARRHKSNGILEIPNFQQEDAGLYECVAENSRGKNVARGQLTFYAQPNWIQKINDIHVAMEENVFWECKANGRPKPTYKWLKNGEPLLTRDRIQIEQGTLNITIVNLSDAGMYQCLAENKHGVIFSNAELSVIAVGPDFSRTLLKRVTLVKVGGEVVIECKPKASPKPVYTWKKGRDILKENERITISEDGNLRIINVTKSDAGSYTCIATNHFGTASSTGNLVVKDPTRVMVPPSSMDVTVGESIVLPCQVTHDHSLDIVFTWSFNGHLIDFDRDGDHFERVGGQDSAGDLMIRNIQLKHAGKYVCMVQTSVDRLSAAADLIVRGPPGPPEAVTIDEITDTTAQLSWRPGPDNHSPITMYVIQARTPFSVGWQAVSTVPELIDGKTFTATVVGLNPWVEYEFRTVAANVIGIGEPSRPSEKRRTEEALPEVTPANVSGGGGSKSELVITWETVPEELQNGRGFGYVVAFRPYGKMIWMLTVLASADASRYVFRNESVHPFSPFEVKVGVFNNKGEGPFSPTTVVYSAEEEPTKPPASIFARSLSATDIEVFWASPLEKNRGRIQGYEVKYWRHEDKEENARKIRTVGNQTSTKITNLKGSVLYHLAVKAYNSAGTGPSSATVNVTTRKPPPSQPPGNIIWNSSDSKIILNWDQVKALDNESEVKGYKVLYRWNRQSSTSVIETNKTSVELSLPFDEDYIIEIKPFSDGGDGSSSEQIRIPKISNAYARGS

Binder	EC50 [nM]	Top MFI [MFI]
A203 scFv (scFv, V domains shown) VH: not shown VL: ELTQDPAVSVALGQTVRITCSGRSGSYGWYQQKPGQAPVLVIYDNTNRPSGIPDRFSGSSSGNTASLTITGAQAEDEADYYCGGYWGSTDVFGGGTKLTVL	3.3	1240
A213 scFv (scFv, V domains shown) VH: not shown VL: ELTQDPAVSVALGQTVRITCSGSSGSYGWYQQKPGQAPVLVIYDNTNRPSGIPDRFSGSSSGNTASLTITGAQAEDEADYYCGGYWGSTDVFGGGTKLTVL	3.2	1700
A217 scFv (scFv, V domains shown) VH: not shown VL: ELTQDPAVSVALGQTVRITCSGSSGSYGWYQQKPGQAPVLVIYDNTNRPSGIPDRFSGSSSGNTASLTITGAQAEDEADYYCGGYWGSTDVFGGGTKLTVL	2.8	1740
A208 scFv (scFv, V domains shown) VH: not shown VL: ELTQDPAVSVALGQTVRITCSGSSGSYGWYQQKPGQAPVLVIYDNTNRPSGIPDRFSGSSSGNTASLTITGAQAEDEADYYCGGYWGSTDVFGGGTKLTVL	3.7	1320
A206 scFv (scFv, V domains shown) VH: not shown VL: ELTQDPAVSVALGQTVRITCSGRSGSYGWYQQKPGQAPVLVIYDNTNRPSGIPDRFSGSSSGNTASLTITGAQAEDEADYYCGGYWGSTDVFGGGTKLTVL	4.8	1370
A205 scFv (scFv, V domains shown) VH: not shown VL: ELTQDPAVSVALGQTVRITCSGSSGSYGWYQQKPGQAPVLVIYDNTNRPSGIPDRFSGSSSGNTASLTITGAQAEDEADYYCGGYWGSTDVFGGGTKLTVL	2	1300
A201 scFv (scFv, V domains shown) VH: not shown VL: ELTQDPAVSVALGQTVRITCSGRSGSYGWYQQKPGQAPVLVIYDNTNRPSGIPDRFSGSSSGNTASLTITGAQAEDEADYYCGGYWGSTDVFGGGTKLTVL	3.2	1380
A218 scFv (scFv, V domains shown) VH: not shown VL: ELTQDPAVSVALGQTVRITCSGRSGSYGWYQQKPGQAPVLVIYDNTNRPSGIPDRFSGSSSGNTASLTITGAQAEDEADYYCGGYWGSTDVFGGGTKLTVL	3.7	1290
A207 scFv (scFv, V domains shown) VH: not shown VL: ELTQDPAVSVALGQTVRITCSGSSGSYGWYQQKPGQAPVLVIYDNTNRPSGIPDRFSGSSSGNTASLTITGAQAEDEADYYCGGYWGSTDVFGGGTKLTVL	3.2	1620
A212 scFv (scFv, V domains shown) VH: not shown VL: ELTQDPAVSVALGQTVRITCSGRSGSYGWYQQKPGQAPVLVIYDNTNRPSGIPDRFSGSSSGNTASLTITGAQAEDEADYYCGGYWGSTDVFGGGTKLTVL	2.7	1630
A216 scFv (scFv, V domains shown) VH: not shown VL: ELTQDPAVSVALGQTVRITCSGRSGSYGWYQQKPGQAPVLVIYDNTNRPSGIPDRFSGSSSGNTASLTITGAQAEDEADYYCGGYWGSTDVFGGGTKLTVL	2.9	1630
A215 scFv (scFv, V domains shown) VH: not shown VL: ELTQDPAVSVALGQTVRITCSGSSGSYGWYQQKPGQAPVLVIYDNTNRPSGIPDRFSGSSSGNTASLTITGAQAEDEADYYCGGYWGSTDVFGGGTKLTVL	3.6	1470
A219 scFv (scFv, V domains shown) VH: not shown VL: ELTQDPAVSVALGQTVRITCSGSSGSYGWYQQKPGQAPVLVIYDNTNRPSGIPDRFSGSSSGNTASLTITGAQAEDEADYYCGGYWGSTDVFGGGTKLTVL	3.9	1270
A202 scFv (scFv, V domains shown) VH: not shown VL: ELTQDPAVSVALGQTVRITCSGRSGSYGWYQQKPGQAPVLVIYDNTNRPSGIPDRFSGSSSGNTASLTITGAQAEDEADYYCGGYWGSTDVFGGGTKLTVL	3	1750
A214 scFv (scFv, V domains shown) VH: not shown VL: ELTQDPAVSVALGQTVRITCSGSSGSYGWYQQKPGQAPVLVIYDNTNRPSGIPDRFSGSSSGNTASLTITGAQAEDEADYYCGGYWGSTDVFGGGTKLTVL	3.5	1460
A209 scFv (scFv, V domains shown) VH: not shown VL: ELTQDPAVSVALGQTVRITCSGRSGSYGWYQQKPGQAPVLVIYDNTNRPSGIPDRFSGSSSGNTASLTITGAQAEDEADYYCGGYWGSTDVFGGGTKLTVL	2.3	1600
A211 scFv (scFv, V domains shown) VH: not shown VL: ELTQDPAVSVALGQTVRITCSGRSGSYGWYQQKPGQAPVLVIYDNTNRPSGIPDRFSGSSSGNTASLTITGAQAEDEADYYCGGYWGSTDVFGGGTKLTVL	3.1	1370
A204 scFv (scFv, V domains shown) VH: not shown VL: ELTQDPAVSVALGQTVRITCSGRSGSYGWYQQKPGQAPVLVIYDNTNRPSGIPDRFSGSSSGNTASLTITGAQAEDEADYYCGGYWGSTDVFGGGTKLTVL	1.7	1700
A210 scFv (scFv, V domains shown) VH: not shown VL: ELTQDPAVSVALGQTVRITCSGRSGSYGWYQQKPGQAPVLVIYDNTNRPSGIPDRFSGSSSGNTASLTITGAQAEDEADYYCGGYWGSTDVFGGGTKLTVL	4.4	1380

biological target: T2, mouse CNTN4 overexpressed on 293F cells (mouse, UniProt Q69Z26 19-1000); assay: FACS, scFv periplasm on mouse CNTN4-overexpressing 293F cells, PE anti-His detection
T2 construct: whole, on cells; Overexpressed on 293F cells; the construct is not described; also called Mouse CNTN4 cell; mouse antigen-overexpressing 293F cells
T2 sequence (looked up): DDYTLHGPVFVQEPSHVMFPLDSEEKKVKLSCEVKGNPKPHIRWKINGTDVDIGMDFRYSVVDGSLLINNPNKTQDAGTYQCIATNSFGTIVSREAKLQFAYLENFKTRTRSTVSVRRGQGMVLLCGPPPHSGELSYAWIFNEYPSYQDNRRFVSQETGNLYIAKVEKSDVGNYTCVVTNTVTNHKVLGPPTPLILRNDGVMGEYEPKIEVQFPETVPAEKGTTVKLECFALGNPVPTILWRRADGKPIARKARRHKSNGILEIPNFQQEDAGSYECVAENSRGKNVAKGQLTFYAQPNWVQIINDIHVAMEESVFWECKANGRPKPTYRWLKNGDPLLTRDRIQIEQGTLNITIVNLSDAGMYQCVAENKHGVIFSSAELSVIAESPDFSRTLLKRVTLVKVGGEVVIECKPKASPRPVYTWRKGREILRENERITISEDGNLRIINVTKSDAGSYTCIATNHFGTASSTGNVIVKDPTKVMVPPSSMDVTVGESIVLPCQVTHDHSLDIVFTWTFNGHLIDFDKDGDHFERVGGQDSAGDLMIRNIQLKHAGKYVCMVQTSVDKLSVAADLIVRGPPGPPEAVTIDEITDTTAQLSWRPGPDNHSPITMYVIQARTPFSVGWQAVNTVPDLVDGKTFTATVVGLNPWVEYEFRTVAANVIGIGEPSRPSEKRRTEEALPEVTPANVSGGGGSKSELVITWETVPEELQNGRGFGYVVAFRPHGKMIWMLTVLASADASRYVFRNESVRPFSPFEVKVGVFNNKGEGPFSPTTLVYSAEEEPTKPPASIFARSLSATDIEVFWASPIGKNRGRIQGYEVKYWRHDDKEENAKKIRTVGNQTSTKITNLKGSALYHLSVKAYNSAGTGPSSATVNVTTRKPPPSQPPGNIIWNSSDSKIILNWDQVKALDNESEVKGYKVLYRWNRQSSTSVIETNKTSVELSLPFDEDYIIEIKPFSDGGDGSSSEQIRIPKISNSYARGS

Binder	EC50 [nM]	Top MFI [MFI]
A101 scFv (scFv, V domains shown) VH: not shown VL: ELTQDPAVSVALGQTVRITCSGSSGSYGWYQQKPGQAPVLVIYDNTNRPSGIPDRFSGSSSGNTASLTITGAQAEDEADYYCGGYDGSTDVFGGGTKLTVL	33.2	2070
A106 scFv (scFv, V domains shown) VH: not shown VL: ELTQDPAVSVALGQTVRITCSGSSGSYGWYQQKPGQAPVLVIYDNTNRPSGIPDRFSGSSSGNTASLTITGAQAEDEADYYCGGYDGSTDVFGGGTKLTVL	72.6	2740
A107 scFv (scFv, V domains shown) VH: not shown VL: ELTQDPAVSVALGQTVRITCSGSSGSYGWYQQKPGQAPVLVIYDNTNRPSGIPDRFSGSSSGNTASLTITGAQAEDEADYYCGGYDGSTDVFGGGTKLTVL	13.6	4110
A105 scFv (scFv, V domains shown) VH: not shown VL: ELTQDPAVSVALGQTVRITCSGSSGSYGWYQQKPGQAPVLVIYDNTNRPSGIPDRFSGSSSGNTASLTITGAQAEDEADYYCGGYDGSTDVFGGGTKLTVL	13.9	2460
